Legend:
[1] = target: M44-modified W NTAA target peptides; test: encoding assay; P2 T;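 further: fraction of recording tags encoded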
[2] = target: M44-modified H NTAA target peptides; test: encoding assay; P2 T;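 further: fraction of recording tags encoded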
[3] = target: M44-modified S NTAA target peptides; test: encoding assay; P2 T
[4] = target: M44-modified D NTAA target peptides; test: encoding assay; P2 T;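 further: fraction of recording tags encoded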
[5] = target: M44-modified G NTAA target peptides (M44-G-P2-peptide); test: encoding assay; P2 N;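 further: fraction of recording tags encoded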
[6] = target: M44-modified A NTAA target peptides (M44-A-P2-peptide); test: encoding assay; P2 N;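 further: fraction of recording tags encoded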
[7] = target: M44-modified T NTAA target peptides; test: encoding assay; P2 N;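 further: fraction of recording tags encoded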
[8] = target: M44-modified P NTAA target peptides; test: encoding assay; P2 N;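 further: fraction of recording tags encoded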
[9] = target: M17-modified F NTAA target peptides; test: encoding assay; P2 T;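 further: fraction of recording tags encoded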
[10] = target: M17-modified M NTAA target peptides; test: encoding assay; P2 T;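 further: fraction of recording tags encoded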
[11] = target: M17-modified V NTAA target peptides; test: encoding assay; P2 T;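 further: fraction of recording tags encoded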
[12] = target: M17-modified P NTAA target peptides; test: encoding assay; P2 T;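 further: fraction of recording tags encoded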
[13] = target: M17-modified S NTAA target peptides; test: encoding assay; P2 T;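 further: fraction of recording tags encoded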
[14] = target: M17-modified E NTAA target peptides; test: encoding assay; P2 T;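 further: fraction of recording tags encoded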
[15] = target: M17-modified D NTAA target peptides; test: encoding assay; P2 T;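 further: fraction of recording tags encoded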
[16] = target: M17-modified I NTAA target peptides; test: encoding assay; P2 T;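 further: fraction of recording tags encoded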
[17] = target: M17-modified T NTAA target peptides; test: encoding assay; P2 T;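 further: fraction of recording tags encoded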
[18] = target: M17-modified H NTAA target peptides; test: encoding assay; P2 T;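 further: fraction of recording tags encoded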
[19] = target: M17-modified L NTAA target peptides; test: encoding assay; P2 T;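 further: fraction of recording tags encoded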
[20] = target: M17-modified G NTAA target peptides; test: encoding assay; P2 T;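 further: fraction of recording tags encoded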
[21] = target: M17-modified N NTAA target peptides; test: encoding assay; P2 T;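 further: fraction of recording tags encoded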
[22] = target: M17-modified Y NTAA target peptides (M17-Y-P2-peptide); test: encoding assay; P2 T;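 further: fraction of recording tags encoded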
[23] = target: M17-modified A NTAA target peptides; test: encoding assay; P2 T;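 further: fraction of recording tags encoded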
[24] = target: M17-modified W NTAA target peptides; test: encoding assay; P2 T;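 further: fraction of recording tags encoded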
[25] = target: M17-modified Q NTAA target peptides; test: encoding assay; P2 T;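 further: fraction of recording tags encoded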
[26] = target: M17-modified F NTAA target peptides; test: encoding assay; P2 N;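 further: fraction of recording tags encoded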
[27] = target: M17-modified M NTAA target peptides; test: encoding assay; P2 N;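 further: fraction of recording tags encoded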
[28] = target: M17-modified V NTAA target peptides; test: encoding assay; P2 N;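 further: fraction of recording tags encoded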
[29] = target: M17-modified P NTAA target peptides; test: encoding assay; P2 N;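 further: fraction of recording tags encoded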
[30] = target: M17-modified S NTAA target peptides; test: encoding assay; P2 N;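 further: fraction of recording tags encoded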
[31] = target: M17-modified E NTAA target peptides; test: encoding assay; P2 N;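 further: fraction of recording tags encoded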
[32] = target: M17-modified D NTAA target peptides; test: encoding assay; P2 N;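 further: fraction of recording tags encoded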
[33] = target: M17-modified I NTAA target peptides; test: encoding assay; P2 N;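 further: fraction of recording tags encoded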
[34] = target: M17-modified T NTAA target peptides; test: encoding assay; P2 N;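 further: fraction of recording tags encoded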
[35] = target: M17-modified H NTAA target peptides; test: encoding assay; P2 N;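 further: fraction of recording tags encoded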
[36] = target: M17-modified L NTAA target peptides; test: encoding assay; P2 N;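 further: fraction of recording tags encoded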
[37] = target: M17-modified G NTAA target peptides; test: encoding assay; P2 N;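 further: fraction of recording tags encoded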
[38] = target: M17-modified N NTAA target peptides; test: encoding assay; P2 N;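 further: fraction of recording tags encoded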
[39] = target: M17-modified Y NTAA target peptides (M17-Y-P2-peptide); test: encoding assay; P2 N;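 further: fraction of recording tags encoded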
[40] = target: M17-modified A NTAA target peptides; test: encoding assay; P2 N;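 further: fraction of recording tags encoded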
[41] = target: M17-modified W NTAA target peptides; test: encoding assay; P2 N;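 further: fraction of recording tags encoded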
[42] = target: M17-modified Q NTAA target peptides; test: encoding assay; P2 N;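 further: fraction of recording tags encoded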
[43] = target: M17-modified Y NTAA target peptides (M17-Y-P2-peptide); test: Gini coefficient of P1 selectivity from multiplex encoding heatmap
[44] = target: M17-modified F NTAA target peptides; test: encoding assay; P2 I;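 further: fraction of recording tags encoded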
[45] = target: M17-modified M NTAA target peptides; test: encoding assay; P2 I;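 further: fraction of recording tags encoded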
[46] = target: M17-modified V NTAA target peptides; test: encoding assay; P2 I;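 further: fraction of recording tags encoded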
[47] = target: M17-modified S NTAA target peptides; test: encoding assay; P2 I;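 further: fraction of recording tags encoded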
[48] = target: M17-modified T NTAA target peptides; test: encoding assay; P2 I;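 further: fraction of recording tags encoded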
[49] = target: M17-modified L NTAA target peptides; test: encoding assay; P2 I;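 further: fraction of recording tags encoded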
[50] = target: M17-modified G NTAA target peptides; test: encoding assay; P2 I;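 further: fraction of recording tags encoded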
[51] = target: M17-modified Y NTAA target peptides (M17-Y-P2-peptide); test: encoding assay; P2 I;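 further: fraction of recording tags encoded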
[52] = target: M17-modified A NTAA target peptides; test: encoding assay; P2 I;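 further: fraction of recording tags encoded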
[53] = target: M17-modified W NTAA target peptides; test: encoding assay; P2 I;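 further: fraction of recording tags encoded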

B1: engineered M44-L binder (SEQ ID NO: 31) (designed binder, not shown: small tags and cut ends; large carriers)
chain: QDSTQNLIPAPPLISVPLQPGFWTERFQGRWFLVGFAGNAVQKERQSRLTMQSLILELQEDNSYNITAINVRGQGCRYIISTLVPSSRPGQFTLGNIHSYPQIQSLDVQVADTDYDQFAMVFLQGTSENKQYFEVALAGRTKGLSDELKERFVSFAKSLGLKDNNIVFSVPTDQCIDN
encoding yield [1]: 0.01
encoding yield [2]: 0.02
encoding yield [3]: 0.01
encoding yield [4]: 0.01
encoding yield [5]: 0.02
encoding yield [6]: 0.02
encoding yield [7]: 0.01
encoding yield [8]: 0.01

B2: engineered M44-A binder (SEQ ID NO: 42) (designed binder, not shown: small tags and cut ends; large carriers)
chain: QVSVQPNFQQDKFLGRWFVAGLASNSSWDREKVAALSGAKMVVAPATDGGLNVTRTMLRKNQCETYTGLLQPAGSLGSYSWRSPHPGSTGSESVVETDYDQYALVYGQGSKGPGEDLRAAALWSRTQTPRAELKEKFTAFSKAQGFTEDTIVFLPQTDKCMTEQ
encoding yield [1]: 0.01
encoding yield [2]: 0.01
encoding yield [3]: 0.01
encoding yield [4]: 0.02
encoding yield [5]: 0.03
encoding yield [6]: 0.1
encoding yield [7]: 0.02
encoding yield [8]: 0.02

B3: engineered M17-Y binder (SEQ ID NO: 61) (designed binder, not shown: small tags and cut ends; large carriers)
chain: TVPDRSEIAGKWYVVALASNTEFYLREKDWVKSAMARISFLGEDELKVSSAVPSPNGCYKVERTWKKTSDDGEVYNSRAAKLKVEVLDTDYKSYAVIYATRVKDGRTDHQMILYSRSPEVSPAATAIFRKLAGERNYTDEMVAMLPRQEECTVDEV
encoding yield [9]: 0.06
encoding yield [10]: 0.01
encoding yield [11]: 0.03
encoding yield [12]: 0.01
encoding yield [13]: 0.01
encoding yield [14]: 0.01
encoding yield [15]: 0.01
encoding yield [16]: 0.06
encoding yield [17]: 0.02
encoding yield [18]: 0.01
encoding yield [19]: 0.04
encoding yield [20]: 0.04
encoding yield [21]: 0.02
encoding yield [22]: 0.14
encoding yield [23]: 0.03
encoding yield [24]: 0.01
encoding yield [25]: 0.03
encoding yield [26]: 0.02
encoding yield [27]: 0.01
encoding yield [28]: 0.02
encoding yield [29]: 0.01
encoding yield [30]: 0.02
encoding yield [31]: 0.02
encoding yield [32]: 0.02
encoding yield [33]: 0.02
encoding yield [34]: 0.01
encoding yield [35]: 0.03
encoding yield [36]: 0.02
encoding yield [37]: 0.03
encoding yield [38]: 0.03
encoding yield [39]: 0.06
encoding yield [40]: 0.02
encoding yield [41]: 0.02
encoding yield [42]: 0.02
P1 score [43]: 0.196
encoding yield [44]: 0.03
encoding yield [45]: 0.01
encoding yield [46]: 0.03
encoding yield [47]: 0.01
encoding yield [48]: 0.01
encoding yield [49]: 0.02
encoding yield [50]: 0.01
encoding yield [51]: 0.17
encoding yield [52]: 0.02
encoding yield [53]: 0.02

B4: upgraded binder after additional maturation round (SEQ ID NO: 62) (designed binder, not shown: small tags and cut ends; large carriers)
chain: TVPDRSEIAGKWYVVALASNTEFYLRGKDRVKSAMVRISFQGEDELKVSSAVPSPNGCYKVERTWKKTSDDGEVYNSRAAKLKVEVLDTDYKSYAVIYATRVKDRRTDHQMILYSRSPDVSPAATAIFRKLAGERNYTDEMVAMLPRQEECTVDEV
encoding yield [9]: 0.08
encoding yield [10]: 0.02
encoding yield [11]: 0.05
encoding yield [12]: 0.01
encoding yield [13]: 0.01
encoding yield [14]: 0.02
encoding yield [15]: 0.02
encoding yield [16]: 0.1
encoding yield [17]: 0.04
encoding yield [18]: 0.02
encoding yield [19]: 0.08
encoding yield [20]: 0.05
encoding yield [21]: 0.02
encoding yield [22]: 0.24
encoding yield [23]: 0.02
encoding yield [24]: 0.02
encoding yield [25]: 0.02
encoding yield [26]: 0.01
encoding yield [27]: 0.02
encoding yield [28]: 0.03
encoding yield [29]: 0.02
encoding yield [30]: 0.02
encoding yield [31]: 0.03
encoding yield [32]: 0.02
encoding yield [33]: 0.03
encoding yield [34]: 0.01
encoding yield [35]: 0.03
encoding yield [36]: 0.03
encoding yield [37]: 0.03
encoding yield [38]: 0.04
encoding yield [39]: 0.15
encoding yield [40]: 0.02
encoding yield [41]: 0.02
encoding yield [42]: 0.02
P1 score [43]: 0.204
encoding yield [44]: 0.05
encoding yield [45]: 0.02
encoding yield [46]: 0.05
encoding yield [47]: 0.02
encoding yield [48]: 0.02
encoding yield [49]: 0.05
encoding yield [50]: 0.02
encoding yield [51]: 0.31
encoding yield [52]: 0.03
encoding yield [53]: 0.04
